Reference: patent US7294496B1, “Cloned human lysophospholipase” (The Regents of the University of California, priority 2000, dated 2007)

Tests used:
Assay type in all cases: biochemical
[1] = PLA2 activity assay toward plasmenylcholine
Method: (§1) The protein concentration was determined by the Bio-Rad protein assay, using bovine serum albumin (BSA) as standard. Protein purity was examined using 12% SDS-PAGE and Coomassie blue staining. LysoPLA activity was measured at 40° C. in the assay buier containing LysoPC, 100 mM Tris-HCl (pH 8.0) and 10 mM LMe. Cold 1-palmitoyl-sn-glycero-3-phosphorylcholine (125 μM, unless indicated otherwise) was mixed with 1-[14 C]palmitoyl-sn-glycero-3-phosphorylcholine (100,000 cpm) in a total volume of 0.5 ml. The assay was initiated by adding an aliquot of enzyme solution to the substrate mixture and incubating for the desired time. The released fatty acid was extracted by the modified Dole method and then quantified by scintillation counting. The PLA2 activity assay was carried out, using various ^14C-labeled phospholipid substrates under various conditions as given in the text. The rat brain iPLA2 was purified as described elsewhere (H. C. Yang et al., manuscript in preparation incorporated herein). Human recombinant cPLA2 was a gift from Drs. J. D. Sharp and R. M. Kramer at Lilly Laboratories. 1-[^14C]Palmitoyl-sn-glycero-3-phosphorylcholine and 1-palmitoyl-2-[1-^14C]palmitoyl-sn-glycerol-3-phosphorylcholine were purchased from Amersham. 1-Palmitoyl-2-[1-^14C]arachidonoyl-sn-glycerol-3-phosphorylcholine was purchased from DuPont-NEN. All unlabeled phospholipids were purchased from Avanti Polar Lipids. Triton X-100 (TX-100) and PIP2 were obtained from CalBiochem.
The sn-2 labeled PlsCho (plasmenylcholine or 1-O— (Z)-1P-alkenyl-2-arachidonoyl-sn-glycero-3-phosphocholine) was synthesized as follows. A total of 4 μmol [1-14C]arachidonic acid (from NEN, with specific activity […]) was diluted 10 times with cold arachidonic acid in 250 μl distilled methylene chloride (Fisher Scientific). To this 0.04 mmol p(N,N-dimethyl)amino pyridine (Aldrich) and 0.08 mmol 1,3-dicyclohexyl carbodiimide (Aldrich) were added to yield the arachidonoyl anhydride upon 1 h of stirring. Lysoplasmenylcholine (0.06 mmol, from Serdary) dissolved in 200 μl methylene chloride and 50 μl pyridine (Fisher Scienticc) was added to the arachidonoyl anhydride solution with 0.03 μmol dimethylaminopyridine and left stirring for 8 h. The reaction progress was monitored by thin layer chromatography (Merck) using a mobile phase of chloroform:methanol:triethyl amine:water (65:30:1.5:3.5), and retardation factors were 0.6 and 0.2 for PlsCho and LysoPlsCho, respectively. The separation of the product was carried out by preparative layer chromatography (Merck) in the above mobile system. The reaction yielded a total of 3.6 mg (7.7 μmol) of radiolabeled PlsCho (specific activity 0.18 μCi/μmol) by quantitative phosphate analysis.
(§2) When we first purified the mouse LysoPLA from P388D1 cells, no other enzymatic activities (PLA1, PLA2, acyltransferase, transacylase and esterase) were found. Therefore, it appears to be a LysoPL-specific LysoPLA. Similar results were obtained for the rat LysoPLA and the relative rates towards different LysoPL substrates were reported [Sugimoto et al., (1996) J. Biol. Chem. 271, 7705-11]. However, a recently sequenced rabbit enzyme that shares high sequence homology (approx. 97%) to the rat/mouse LysoPLA was reported to have both PLA2 and LysoPLA activities [Portilla, et al., […] J. Am. Soc.Nephrol. 9, 1178-86]. The specific activities, however, were only 10 nmol/min/mg for PLA2 activity and 20 nmol/min/mg for LysoPLA activity. The PLA2 activity was also reported to be selective for PlsCho substrate with arachidonic acid at the sn2 position. To determine whether hLysoPLA also expresses PLA2 activity, we have explored its ability to hydrolyze arachidonic acid labeled PlsCho as well as other phospholipid substrates under a variety of conditions.

[2] = PLA2 activity assay toward PAPC; conditions: for Activity: 100 mM Hepes, pH 7.5, 80 μM Ca2+, 2 mM DTT, 0.1 mg/ml BSA
Method: as §1, §2

[3] = PLA2 activity assay toward DPPC; conditions: for Activity: 100 mM Hepes
Method: as §1, §2

[4] = LysoPLA activity assay (release of fatty acid from 14C-LysoPC)
Method: as §1
To investigate the catalytic properties of the hLy-soPLA, we first determined the specific activity of hLysoPLA as a function of substrate (1-palmitoyl LysoPC) concentration. […] There seems to be some cooperativity, since the data fit to the Hill equation (solid line in FIG. 3) with n=1.53 ? 0.08, kcat=1.34 ? 0.04 μmol/min/mg, and substrate at half-maximal saturation is 12.7±0.9 μM.
TX-100 is often used in the purification and stabilization of membrane-associated proteins. In addition, it is used to change the surface concentration of the substrate in the mixed-micelle assay for mechanistic studies. To determine the dependence of the enzyme activity on the substrate surface concentration, we measured the hLysoPLA activity under two conditions:
(1) the bulk LysoPC concentration (1.125 mM) was kept constant and the TX-100 concentration was varied (FIG. 4A);
(2) the bulk TX-100 concentration (1 mM) was kept constant and the LysoPC concentration was varied (FIG. 4B).
In addition, we have carried out detailed kinetic measurements and analysis to test the surface dilution kinetic model and results are shown in FIG. 4° C. The experimental data were fitted globally to Eq. 1 derived from the model in which hLysoPLA follows the two-step binding kinetics (Scheme 1). That is, hLysoPLA (E) binds first to the mixed-micellar surface (S) and then to the LysoPC substrate (A) presented on the surface.
[formula] [formula] Here, [LysoPC+TX-100] is the total molar concentration in the bulk solution, and {LysoPC®} is the molar fraction of the substrate on the mixed-micellar surface. Calculation of the amount of TX-100 in the micelle takes into account the amount of monomeric detergent in the solution, assuming the critical micelle concentration of TX-100 is 0.25 mM. The fitting parameter Ks represents the dissociation constant (k31/k1) for the mixed-micellar surface, Km represents the apparent Michaelis constant (=(k3+ k32)/k2) on the surface, and Vmax is the catalytic turnover rate.

[5] = Hill equation fit, pure LysoPC (FIG. 3)
[6] = global fit to surface dilution model, LysoPC/TX-100 mixed micelles

B1: hLysoPLA: recombinant human brain lysophospholipase, single 25 kDa polypeptide of 230 amino acids (SEQ ID NO: 2), catalytic triad Ser-119, Asp-174, His-208 (protein, listed as Homo sapiens)
chain: MCGNNMSTPLPAIVPAARKATAAVIFLHGLGDTGHGWAEAFAGIRSSHIKYICPHAPVRPVTLNMNVAMPSWFDIIGLSPDSQEDESGIKQAAENIKALIDQEVKNGIPSNRIILGGFSQGGALSLYTALTTQQKLAGVTALSCWLPLRASLPQGPIGGANRDISILQCHGDCDPLVPLMFGSLTVEKLKTLVNPANVTFKTYEGMMHSSCQQEMMDVKQFIDKLLPPID
For B1, the Activity ([1]; PisCho sonicated vesicles (100 μM), 100 mM Tris, pH 8.0, 4 mM EGTA, 10 mM βMe) was 0.0009 ± 0.0003 µmol/min/mg, the Activity ([1]; PisCho sonicated vesicles (100 μM), 100 mM Tris, pH 8.0, 150 mM NaCl, 3 mM MgCl2, 10 mM βMe) was 0.0006 ± 0.0002 µmol/min/mg and the Activity ([1]; PisCho/TX-100 mixed micelles (100 μM:600 μM), 100 mM Hepes, pH 7.5, 10 mM βMe) was 0.0024 ± 0.0004 µmol/min/mg. The “activity toward PlsCho substrate labeled with [14C]arachidonic acid (in words)” value ([1]; mixed micelles or vesicles) was “did not show any significant activity”, the “PLA2 activity toward phosphatidylcholine substrates (in words)” value ([2]; PAPC substrates) was “no PLA2 activity was found” and the Activity ([2]; PAPC/PIP2/TX-100 mixed micelles (97 μM:3 μM:400 μM)) was under 0.0001 µmol/min/mg. The Activity ([2]; PAPC/TX-100 mixed micelles (100 μM:400 μM)) was under 0.0001 µmol/min/mg, the “PLA2 activity toward phosphatidylcholine substrates (in words)” value ([3]; DPPC substrates) was “no PLA2 activity was found” and the Activity ([3]; DPPC/POPS sonicated vesicles (67 μM:33 μM), pH 7.5, 5 mM EDTA or Ca2+, 1 mg/ml BSA) was under 0.0001 µmol/min/mg. The Activity ([3]; DPPC/TX-100 mixed micelles (100 μM:400 μM), pH 7.5, 2 mM DTT, 5 mM EDTA) was under 0.0001 µmol/min/mg, the Hill coefficient n ([4]; Hill equation fit, activity vs 1-palmitoyl LysoPC concentration, 40° C. (FIG. 3)) was 1.53 and the kcat [4, 5] was 1.34 µmol/min/mg. For the same molecule, the “substrate at half-maximal saturation” value [4, 5] was 12.7 ± 0.9 µM, the Activity ([4]; LysoPC micelles (125 μM), 100 mM Tris, pH 8.0, 10 mM βMe) was 1.13 ± 0.03 µmol/min/mg and the kcat ([4]; Michaelis-Menten fit, LysoPC 1.125 mM constant, TX-100 varied (FIG. 4A)) was 1.6 µmol/min/mg. For the same molecule, the kcat ([4]; Michaelis-Menten fit, TX-100 1 mM constant, LysoPC varied (FIG. 4B)) was 1.7 µmol/min/mg, the “Km (apparent Michaelis constant on the surface)” value [4, 6] was 12.2±0.9 mol % and the “Ks (dissociation constant for the mixed-micellar surface)” value [4, 6] was 66 ± 7 µM. The Vmax ([4]; global fit to surface dilution model, LysoPC/TX-100 mixed micelles (FIG. 4C)) was 1.37 ± 0.05 µmol/min/mg and the “specific activity toward palmitoyl LysoPC” value ([4]; purified recombinant enzyme, His-Tag removed) was “about 1.3 μmol/min/mg”.
